What was measured:
[1] = system: TcbA (native, from W-14 broth)
[2] = target: T1, TcdAiii (Photorhabdus luminescens strain W-14); test: native PAGE (one major band), gel filtration 860 kDa, 1 to 1 molar ratio by densitometry
T1 construct: Processed peptide of TcdA; also called A2
T1 chain: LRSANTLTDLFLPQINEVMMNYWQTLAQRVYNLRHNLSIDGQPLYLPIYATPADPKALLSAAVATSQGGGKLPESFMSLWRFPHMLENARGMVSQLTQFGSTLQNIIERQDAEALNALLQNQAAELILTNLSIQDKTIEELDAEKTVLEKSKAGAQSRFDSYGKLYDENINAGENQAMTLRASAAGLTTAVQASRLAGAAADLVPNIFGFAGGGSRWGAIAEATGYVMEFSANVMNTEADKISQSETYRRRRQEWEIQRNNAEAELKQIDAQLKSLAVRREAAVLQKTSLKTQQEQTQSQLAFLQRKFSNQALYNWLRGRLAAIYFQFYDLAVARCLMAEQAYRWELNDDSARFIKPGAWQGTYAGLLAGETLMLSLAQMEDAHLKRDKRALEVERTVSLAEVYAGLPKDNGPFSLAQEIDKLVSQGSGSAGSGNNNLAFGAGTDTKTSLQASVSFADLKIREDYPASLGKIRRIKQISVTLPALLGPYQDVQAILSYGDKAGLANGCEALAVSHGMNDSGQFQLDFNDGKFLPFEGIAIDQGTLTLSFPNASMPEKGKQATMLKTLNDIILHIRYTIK

[3] = target: T2, TcbAiii (Photorhabdus luminescens strain W-14); test: native PAGE (one major band), gel filtration 860 kDa, same molar concentration
T2 construct: Processed peptide of TcbA; also detected in E. coli preparations expressing tcbA constructs; also called B2; 58 kDa peptide of toxin B
T2 chain: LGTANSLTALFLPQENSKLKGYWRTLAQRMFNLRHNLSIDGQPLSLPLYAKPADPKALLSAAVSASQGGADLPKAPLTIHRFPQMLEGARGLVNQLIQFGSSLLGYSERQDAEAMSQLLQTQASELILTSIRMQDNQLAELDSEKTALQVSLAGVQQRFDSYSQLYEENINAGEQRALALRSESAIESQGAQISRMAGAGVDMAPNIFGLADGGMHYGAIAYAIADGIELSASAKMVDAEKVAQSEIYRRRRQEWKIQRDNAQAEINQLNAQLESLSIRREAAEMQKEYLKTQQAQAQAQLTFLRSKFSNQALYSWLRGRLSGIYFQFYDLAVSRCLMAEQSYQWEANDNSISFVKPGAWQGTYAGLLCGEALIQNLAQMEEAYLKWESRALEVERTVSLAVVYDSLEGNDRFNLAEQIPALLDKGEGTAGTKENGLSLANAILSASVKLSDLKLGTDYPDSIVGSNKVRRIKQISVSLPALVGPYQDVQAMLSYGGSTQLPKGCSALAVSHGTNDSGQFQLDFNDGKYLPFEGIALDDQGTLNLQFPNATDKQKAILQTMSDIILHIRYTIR

Molecule: 38 kDa W-14 Photorhabdus metalloprotease
- TcbA (% of total protein) after 38 kDa protease treatment (control 58) (% of total protein) [1]: 18
- cleavage of TcbA followed by SDS-PAGE densitometry [1]: the amount of peptides TcbAii and TcbAiii increased about 3-fold while the amount of TcbA peptide decreased proportionally

Molecule: 58 kDa W-14 Photorhabdus metalloprotease
- cleavage of TcbA followed by SDS-PAGE densitometry [1]: the amount of peptides TcbAii and TcbAiii increased about 3-fold while the amount of TcbA peptide decreased proportionally

B1: TcdAii (other)
chain: LIGYNNQFSGRASQYVAPGTVSSMFSPAAYLTELYREARNLHASDSVYYLDTRRPDLKSMALSQQNMDIELSTLSLSNELLLESIKTESKLENYTKVMEMLSTFRPSGATPYHDAYENVREVIQLQDPGLEQLNASPAIAGLMHQASLLGINASISPELFNILTEEITEGNAEELYKKNFGNIEPASLAMPEYLKRYYNLSDEELSQFIGKASNFGQQEYSNNQLITPVVNSSDGTVKVYRITREYTTNAYQMDVELFPFGGENYRLDYKFKNFYNASYLSIKLNDKRELVRTEGAPQVNIEYSANITLNTADISQPFEIGLTRVLPSGSWAYAAAKFTVEEYNQYSFLLKLNKAIRLSRATELSPTILEGIVRSVNLQLDINTDVLGKVFLTKYYMQRYAIHAETALILCNAPISQRSYDNQPSQFDRLFNTPLLNGQYFSTGDEEIDLNSGSTGDWRKTILKRAFNIDDVSLFRLLKITDHDNKDGKIKNNLKNLSNLYIGKLLADIHQLTIDELDLLLIAVGEGKTNLSAISDKQLATLIRKLNTITSWLHTQKWSVFQLFIMTSTSYNKTLTPEIKNLLDTVYHGLQGFDKDKADLLHVMAPYIAATLQLSSENVAHSVLLWADKLQPGDGAMTAEKFWDWLNTKYTPGSSEAVETQEHIVQYCQALAQLEMVYHSTGINENAFRLFVTKPEMFGAATGAAPAHDALSLIMLTRFADWVNALGEKASSVLAAFEANSLTAEQLADAMNLDANLLLQASIQAQNHQHLPPVTPENAFSCWTSINTILQWVNVAQQLNVAPQGVSALVGLDYIQSMKETPTYAQWENAAGVLTAGLNSQQANTLHAFLDESRSAALSTYYIRQVAKAAAAIKSRDDLYQYLLIDNQVSAAIKTTRIAEAIASIQLYVNRALENVEENANSGVISRQFFIDWDKYNKRYSTWAGVSQLVYYPENYIDPTMRIGQTKMMDALLQSVSQSQLNADTVEDAFMSYLTSFEQVANLKVISAYHDNINNDQGLTYFIGLSETDAGEYYWRSVDHSKFNDGKFAANAWSEWHKIDCPINPYKSTIRPVIYKSRLYLLWLEQKEITKQTGNSKDGYQTETDYRYELKLAHIRYDGTWNTPITFDVNKKISELKLEKNRAPGLYCAGYQGEDTLLVMFYNQQDTLDSYKNASMQGLYIFADMASKDMTPEQSNVYRDNSYQQFDTNNVRRVNNRYAEDYEIPSSVSSRKDYGWGDYYLSMVYNGDIPTINYKAASSDLKIYISPKLRIIHNGYEGQKRNQCNLMNKYGKLGDKFIVYTSLGVNPNNSSNKLMFYPVYQYSGNTSGLNQGRLLFHRDTTYPSKVEAWIPGAKRSLTNQNAAIGDDYATDSLNKPDDLKQYIFMTDSKGTATDVSGPVEINTAISPAKVQIIVKAGGKEQTFTADKDVSIQPSPSFDEMNYQFNALEIDGSGLNFINNSASIDVTFTAFAEDGRKLGYESFSIPVTLKVSTDNALTLHHNENGAQYMQWQSYRTRLNTLFARQLVARATTGIDTILSMETQNIQEPQLGKGFYATFVIPPYNLSTHGDERWFKLYIKHVVDNNSHIIYSGQLTDTNINITLFIPLDDVPLNQDYHAKVYMTFKKSPSDGTWWGPHFVRDDKGIVTINPKSILTHFESVNVLNNISSEPMDFSGANSLYFWELFYYTPMLVAQRLLHEQNFDEANRWLKYVWSPSGYIVHGQIQNYQWNVRPLLEDTSWNSDPLDSVDPDAVAQHDPMHYKVSTFMRTLDLLIARGDHAYRQLERDTLNEAKMWYMQALHLLGDKPYLPLSTTWSDPRLDRAADITTQNAHDSAIVALRQNIPTPAPLS
notes: Processed peptide of TcdA; also called A1
- binding result [2]: binds

B2: TcbAii (other)
chain: FIQGYSDLFGNRADNYAAPGSVASMFSPAAYLTELYREAKNLHDSSSIYYLDKRRPDLASLMLSQKNMDEEISTLALSNELCLAGIETKTGKSQDEVMDMLSTYRLSGETPYHHAYETVREIVHERDPGFRHLSQAPIVAAKLDPVTLLGISSHISPELYNLLIEEIPEKDEAALDTLYKTNFGDITTAQLMSPSYLARYYGVSPEDIAYVTTSLSHVGYSSDILVIPLVDGVGKMEVVRVTRTPSDNYTSQTNYIELYPQGGDNYLIKYNLSNSFGLDDFYLQYKDGSADWTEIAHNPYPDMVINQKYESQATIKRSDSDNILSIGLQRWHSGSYNFAAANFKIDQYSPKAFLLKMNKAIRLLKATGLSFATLERIVDSVNSTKSITVEVLNKVYRVKFYIDRYGISEETAAILANINISQQAVGNQLSQFEQLFNHPPLNGIRYEISEDNSKHLPNPDLNLKPDSTGDDQRKAVLKRAFQVNASELYQMLLITDRKEDGVIKNNLENLSDLYLVSLLAQIHNLTIAELNILLVICGYGDTNIYQITDDNLAKIVETLLWITQWLKTQKWTVTDLFLMTTATYSTTLTPEISNLTATLSSTLHGKESLIGEDLKRAMAPCFTSALHLTSQEVAYDLLLWIDQIQPAQITVDGFWEEVQTTPTSLKVITFAQVLAQLSLIYRRIGLSETELSLIVTQSSLLVAGKSILDHGLLTLMALEGFHTWVNGLGQHASLILAALKDGALTVTDVAQAMNKEESLLQMAANQVEKDLTKLTSWTQIDAILQWLQMSSALAVSPLDLAGMMALKYGIDHNYAAWQAAAAALMADHANQAQKKLDETFSKALCNYYINAVVDSAAGVRDRNGLYTYLLIDNQVSADVITSRIAEAIAGIQLYVNRALNRDEGQLASDVSTRQFFTDWERYNKRYSTWAGVSELVYYPENYVDPTQRIGQTKMMDALLQSINQSQLNADTVEDAFKTYLTSFEQVANLKVISAYHDNVNVDQGLTYFIGIDQAAPGTYYWRSVDHSKCENGKFAANAWGEWNKITCAVNPWKNIIRPVVYMSRLYLLWLEQQSKKSDDGKTTIYQYNLKLAHIRYDGSWNTPFTFDVTEKVKNYTSSTDAAESLGLYCTGYQGEDTLLVMFYSMQSSYSSYTDNNAPVTGLYIFADMSSDNMTNAQATNYWNNSYPQFDTVMADPDSDNKKVITRRVNNRYAEDYEIPSSVTSNSNYSWGDHSLTMLYGGSVPNITFESAAEDLRLSTNMALSIIHNGYAGTRRIQCNLMKQYASLGDKFIIYDSSFDDANRFNLVPLFKFGKDENSDDSICIYNENPSSEDKKWYFSSKDDNKTADYNGGTQCIDAGTSNKDFYYNLQEIEVISVTGGYWSSYKISNPININTGIDSAKVKVTVKAGGDDQIFTADNSTYVPQQPAPSFEEMIYQFNNLTIDCKNLNFIDNQAHIEIDFTATAQDGRFLGAETFIIPVTKKVLGTENVIALYSENNGVQYMQIGAYRTRLNTLFAQQLVSRANRGIDAVLSMETQNIQEPQLGAGTYVQLVLDKYDESIHGTNKSFAIEYVDIFKENDSFVIYQGELSETSQTVVKVFLSYFIEATGNKNHLWVRAKYQKETTDKILFDRTDEKDPHGWFLSDDHKTFSGLSSAQALKNDSEPMDFSGANALYFWELFYYTPMMMAHRLLQEQNFDAANHWFRYVWSPSGYIVDGKIAIYHWNVRPLEEDTSWNAQQLDSTDPDAVAQDDPMHYKVATFMATLDLLMARGDAAYRQLERDTLAEAKMWYTQALNLLGDEPQVMLSTTWANPTLGNAASKTTQQVRQQVLTQLRLNSRVKTPL
notes: Processed peptide of TcbA; also called B1; 201 kDa peptide
- binding result [3]: binds
